# Source: patent publication US20210140973A1 (NITTO BOSEKI, published 2021)
# T1: GST-tagged peptide H35 (H10 with Q235R, R289K, E299Q and L325P) (human, UniProt P0DOX5 343-449 = IgG part)
# T1 construct: not shown: N-terminal GST tag (from vector pGEX-6P-1) and any vector linker
# T1 chain: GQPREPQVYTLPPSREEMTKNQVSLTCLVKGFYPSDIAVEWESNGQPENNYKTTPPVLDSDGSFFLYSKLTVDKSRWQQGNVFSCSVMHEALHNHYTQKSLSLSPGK
# B1: MaI4-08-produced antibody (antibody, IgG1, V domains shown)
# VH: EVQLQQSGPELVKPGTSVKMSCKASGYIFTSYILHWVKQKPGQGLEWIAYINPYNDGTKYKEKFKGKGTLTSDKSSSTAYMELSSLTSEDSAVYYCARSGGGYGNYAWFAYWGPGTLVTVST
# VL: DIQMTQSPSSLSASLGERVSLTCRASQDIGSSLNWLQQEPDGTIKRLIYATSSLDSGVPKRFSGSRSGSDYSLTISSLESEDFVDYYCLQYASYPPTFGAGTKLELK
# notes: Purified on protein G from hybridoma culture supernatant; POD-labelled for the Western blots
# Columns and labels:
# [1] = target: T1, GST-tagged peptide H35 (H10 with Q235R, …); assay: Western blot: E. coli lysate with the GST-tagged peptide, SDS-PAGE, PVDF membrane, POD-labelled antibody diluted 1000-fold, ECL
# Method: (§1) Based on the designed amino acid sequences, base sequences suitable for expressing protein in E. coli were designed according to the protocol of GenScript Corporation, thereby preparing vector pGEX-6P-1 (GE Healthcare Bio-Sciences Corp.) to which the respective base sequences are inserted. The prepared expression plasmid was introduced to E. coli BL 21 strain, thereby obtaining a transformant. The transformant was cultured by an ordinary method and a protein expression was induced by IPTG. After the cells were collected by centrifugation, the cells were dissolved with an ordinary lysis solution, and subjected to ultrasonication. 6 μL of an SDS sample buffer solution was added to 6 μL of the obtained lysate. The respective prepared samples were subjected to a heat treatment at 95° C. for 5 minutes. 10 μL of the E. coli disrupted sample was added to each well of 5 to 20% electrophoresis gel (Atto Corportation) to which an SDS electrophoresis buffer solution was added. Similarly, a molecular weight standard (Bio-Rad Laboratories, Inc.) was added to each well and electrophoresed. After completing the electrophoresis, the electrophoresis gel was transcribed to a PVDF membrane (Millipore Corporation) with a transfer buffer solution. The PVDF membrane was immersed in a membrane blocking buffer solution, and then shaking was carried out at room temperature for 30 minutes. Amino groups of MaI4-08, MaI4-09, and MaI4-05-produced antibodies were subjected to a POD labeling treatment with a POD labeling kit (Dojindo Molecular Technologies, Inc.). The obtained labeled antibodies each were diluted 1000-fold by PBST. After the PVDF membrane was cleaned with PBST, the antibody solutions prepared each were added to the PVDF membrane, and then the reaction was performed at room temperature for 1 hour. After the PVDF membrane was cleaned by PBST, a signal was detected with ECL Prime Western Blotting Detection Reagents (GE Healthcare) with Image Quant Las4000.
# [2] = target: T2, GST-tagged peptide H2 (positions 1 to 274 of the human IgG4 heavy chain constant region) (human, UniProt P01861 1-274 = IgG part); assay: as above
# T2 construct: E. coli lysate on Western blot; not shown: GST tag (glutathione S-transferase) linked to the N terminal, expressed from vector pGEX-6P-1
# Method: as §1
# [3] = target: T3, GST-tagged peptide H6 (positions 1 to 55 of the human IgG4 heavy chain constant region) (human, UniProt P01859 1-55 = IgG part); assay: as above
# T3 construct: E. coli lysate on Western blot; not shown: GST tag (glutathione S-transferase) linked to the N terminal, expressed from vector pGEX-6P-1
# Method: as §1
# [4] = target: Myeloma human IgE (Abcam) (human, UniProt P01854-1 1-428); assay: indirect ELISA, antigen coated 1 µg/mL, antibody 1 µg/mL; no-antigen well 0.042
# Method: (§2) Myeloma human IgA1 (Abcam), Myeloma human IgA2 (Abcam), Myeloma human IgD (Abcam), Myeloma human IgE (Abcam), Myeloma human IgM (Abcam), Myeloma human IgG1 (EMD Millipore), Myeloma human IgG2 (EMD Millipore), Myeloma human IgG3 (Sigma-Aldrich Co. LLC), and Myeloma human IgG4 (EMD Millipore) were adjusted to 1 μg/mL with PBS(−). The adjusted samples were added to a 96-well plate (Thermo Fisher Scientific) by 100 μL, respectively. The plate was shaken by a shaker under the condition of 700 rpm and 25.0° C. for 1 hour. The solutions were discarded, the plate was cleaned with 300 μL of PBST 3 times, 100 μL of a blocking buffer solution was added to each well, and then the plate was stored at 4° C. one night or more. Similarly, after cleaning with PBST, the MaI4-08 and MaI4-09-produced antibodies were adjusted to 1 μg/mL with an antibody dilute buffer solution and then added to each well by 100 μL, and the plate was shaken under the same condition as mentioned above. Similarly, after cleaning with PBST, a HRP labeled anti-mouse IgG antibody (Abcam) diluted 4000-fold with an antibody dilute buffer solution was added to each well by 100 μL, and the plate was shaken under the same condition as mentioned above. Similarly, after cleaning with PBST, 100 μL of SureBlue (KPL) was added. 5 or 3 minutes later, 100 μL of 0.5 mol/L sulfuric acid (Wako Pure Chemical Corporation) was added to each of MaI4-08 and MaI4-09. Absorbance at a wavelength of 450 nm was measured with a microplate reader (BIO-RAD Laboratories, Inc.). As a result, a strong signal was given to Myeloma human IgG4 as compared to the other samples (Tables 2 and 3, and FIGS. 2 and 3).
# [5] = target: T4, Myeloma human IgG2 (EMD Millipore) (human); assay: as above
# T4 construct: Bought myeloma protein
# Method: as §2
# [6] = target: T5, Myeloma human IgG4 (EMD Millipore) (human); assay: as above
# T5 construct: Bought myeloma protein
# Method: as §2
# [7] = target: T6, Myeloma human IgG1 (EMD Millipore) (human); assay: as above
# T6 construct: Bought myeloma protein
# Method: as §2
# [8] = target: Myeloma human IgA1 (Abcam) (human, UniProt P01876-1 1-353); assay: as above
# Method: as §2
# [9] = target: Myeloma human IgM (Abcam) (human, UniProt P01871-1 1-453); assay: as above
# Method: as §2
# [10] = target: Myeloma human IgD (Abcam) (human, UniProt P01880-1 1-384); assay: as above
# Method: as §2
# [11] = target: T7, Myeloma human IgG3 (Sigma-Aldrich Co. LLC) (human); assay: as above
# T7 construct: Bought myeloma protein
# Method: as §2
# [12] = target: Myeloma human IgA2 (Abcam) (human, UniProt P01877-1 1-340); assay: as above
# Method: as §2
# Myeloma human IgA1 (Abcam), sequence (P01876 other isoform, or with tags, fused parts or gaps): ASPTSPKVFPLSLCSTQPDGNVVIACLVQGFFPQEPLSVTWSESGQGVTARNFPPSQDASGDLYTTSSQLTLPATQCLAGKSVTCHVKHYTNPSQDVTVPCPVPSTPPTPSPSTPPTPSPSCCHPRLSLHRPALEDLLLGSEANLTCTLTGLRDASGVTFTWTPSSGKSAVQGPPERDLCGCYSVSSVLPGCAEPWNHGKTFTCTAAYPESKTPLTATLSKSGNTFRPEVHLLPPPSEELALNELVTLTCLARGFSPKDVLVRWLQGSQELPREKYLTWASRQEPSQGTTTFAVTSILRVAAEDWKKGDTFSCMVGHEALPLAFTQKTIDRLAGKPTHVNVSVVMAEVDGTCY
# T3 sequence (P01859 1-55): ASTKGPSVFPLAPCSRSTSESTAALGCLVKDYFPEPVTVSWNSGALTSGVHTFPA
# T7 sequence (constant, as listed by the source limits assumed): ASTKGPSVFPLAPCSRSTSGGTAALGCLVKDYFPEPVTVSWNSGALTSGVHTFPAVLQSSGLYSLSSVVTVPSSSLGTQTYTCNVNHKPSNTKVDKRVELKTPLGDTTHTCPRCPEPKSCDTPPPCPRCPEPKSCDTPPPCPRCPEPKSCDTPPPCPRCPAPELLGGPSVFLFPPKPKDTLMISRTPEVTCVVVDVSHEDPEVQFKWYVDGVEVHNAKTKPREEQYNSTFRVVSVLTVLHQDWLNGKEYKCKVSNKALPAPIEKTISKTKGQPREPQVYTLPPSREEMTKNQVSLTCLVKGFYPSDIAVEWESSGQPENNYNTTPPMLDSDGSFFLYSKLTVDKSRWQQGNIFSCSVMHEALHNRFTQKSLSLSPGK
# T6 sequence (constant, as listed by the source limits assumed): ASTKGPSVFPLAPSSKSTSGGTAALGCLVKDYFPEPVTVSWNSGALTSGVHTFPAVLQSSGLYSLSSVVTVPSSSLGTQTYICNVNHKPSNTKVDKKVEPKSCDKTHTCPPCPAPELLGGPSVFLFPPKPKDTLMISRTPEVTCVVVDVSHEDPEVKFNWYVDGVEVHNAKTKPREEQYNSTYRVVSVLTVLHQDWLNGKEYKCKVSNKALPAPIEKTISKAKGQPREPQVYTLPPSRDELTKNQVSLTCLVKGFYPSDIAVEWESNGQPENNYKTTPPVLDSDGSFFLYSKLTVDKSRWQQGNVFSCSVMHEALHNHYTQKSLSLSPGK
# T2 sequence (P01861 1-274): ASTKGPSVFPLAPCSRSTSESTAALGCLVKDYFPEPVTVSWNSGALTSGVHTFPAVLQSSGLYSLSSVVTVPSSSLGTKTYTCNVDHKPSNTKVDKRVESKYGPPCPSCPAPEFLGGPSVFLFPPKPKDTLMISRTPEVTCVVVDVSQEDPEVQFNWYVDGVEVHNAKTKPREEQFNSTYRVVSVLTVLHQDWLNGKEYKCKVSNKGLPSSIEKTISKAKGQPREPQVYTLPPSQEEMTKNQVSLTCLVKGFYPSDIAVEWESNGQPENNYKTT
# Myeloma human IgM (Abcam), sequence (P01871 other isoform, or with tags, fused parts or gaps): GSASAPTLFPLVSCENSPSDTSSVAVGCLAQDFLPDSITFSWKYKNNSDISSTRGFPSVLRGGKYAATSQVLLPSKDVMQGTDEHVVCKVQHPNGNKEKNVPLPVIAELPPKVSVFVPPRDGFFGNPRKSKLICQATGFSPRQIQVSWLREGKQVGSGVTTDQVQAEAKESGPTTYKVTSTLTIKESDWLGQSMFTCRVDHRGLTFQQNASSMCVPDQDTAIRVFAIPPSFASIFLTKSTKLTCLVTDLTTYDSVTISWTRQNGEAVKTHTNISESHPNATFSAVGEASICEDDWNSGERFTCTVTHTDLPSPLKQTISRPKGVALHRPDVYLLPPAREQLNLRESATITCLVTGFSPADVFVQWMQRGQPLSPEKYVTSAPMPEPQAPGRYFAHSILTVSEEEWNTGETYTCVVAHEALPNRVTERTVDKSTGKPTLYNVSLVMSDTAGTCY
# T4 sequence (constant, as listed by the source limits assumed): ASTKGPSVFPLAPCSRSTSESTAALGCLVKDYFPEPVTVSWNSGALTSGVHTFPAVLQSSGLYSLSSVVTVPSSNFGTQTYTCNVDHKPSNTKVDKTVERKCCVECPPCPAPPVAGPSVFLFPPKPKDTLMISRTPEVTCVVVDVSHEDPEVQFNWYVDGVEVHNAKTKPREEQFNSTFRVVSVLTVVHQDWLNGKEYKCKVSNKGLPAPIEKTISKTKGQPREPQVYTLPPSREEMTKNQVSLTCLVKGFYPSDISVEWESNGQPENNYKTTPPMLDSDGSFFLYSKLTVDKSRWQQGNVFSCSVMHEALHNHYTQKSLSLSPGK
# T5 sequence (constant, as listed by the source limits assumed): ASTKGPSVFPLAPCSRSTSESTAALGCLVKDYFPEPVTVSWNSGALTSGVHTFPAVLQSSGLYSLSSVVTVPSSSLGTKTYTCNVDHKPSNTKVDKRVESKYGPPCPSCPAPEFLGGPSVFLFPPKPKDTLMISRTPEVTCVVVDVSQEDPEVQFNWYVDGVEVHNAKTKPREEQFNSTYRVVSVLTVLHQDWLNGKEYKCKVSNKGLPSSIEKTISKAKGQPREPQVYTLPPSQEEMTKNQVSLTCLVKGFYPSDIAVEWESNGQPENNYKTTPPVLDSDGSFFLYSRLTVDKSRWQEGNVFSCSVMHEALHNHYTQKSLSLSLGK
# Myeloma human IgD (Abcam), sequence (P01880 other isoform, or with tags, fused parts or gaps): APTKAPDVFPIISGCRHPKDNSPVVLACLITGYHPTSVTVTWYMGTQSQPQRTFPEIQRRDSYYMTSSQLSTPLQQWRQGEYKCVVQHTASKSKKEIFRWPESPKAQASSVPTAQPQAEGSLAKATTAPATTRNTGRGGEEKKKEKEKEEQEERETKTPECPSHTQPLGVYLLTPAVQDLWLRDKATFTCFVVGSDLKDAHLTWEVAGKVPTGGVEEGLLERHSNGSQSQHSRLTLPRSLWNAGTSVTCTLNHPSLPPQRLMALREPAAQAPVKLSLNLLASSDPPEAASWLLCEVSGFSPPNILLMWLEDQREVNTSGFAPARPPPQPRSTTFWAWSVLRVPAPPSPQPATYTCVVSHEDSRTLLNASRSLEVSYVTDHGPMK
# Myeloma human IgA2 (Abcam), sequence (P01877 other isoform, or with tags, fused parts or gaps): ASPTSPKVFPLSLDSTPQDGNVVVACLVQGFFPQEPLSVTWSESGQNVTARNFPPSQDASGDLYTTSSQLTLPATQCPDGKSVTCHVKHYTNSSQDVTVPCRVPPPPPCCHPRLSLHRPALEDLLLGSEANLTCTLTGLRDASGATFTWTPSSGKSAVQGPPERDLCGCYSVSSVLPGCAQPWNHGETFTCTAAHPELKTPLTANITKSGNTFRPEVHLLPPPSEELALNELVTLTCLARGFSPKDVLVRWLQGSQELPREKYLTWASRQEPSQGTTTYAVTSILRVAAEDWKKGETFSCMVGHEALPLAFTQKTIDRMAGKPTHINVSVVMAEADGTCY
# Myeloma human IgE (Abcam), sequence (P01854 other isoform, or with tags, fused parts or gaps): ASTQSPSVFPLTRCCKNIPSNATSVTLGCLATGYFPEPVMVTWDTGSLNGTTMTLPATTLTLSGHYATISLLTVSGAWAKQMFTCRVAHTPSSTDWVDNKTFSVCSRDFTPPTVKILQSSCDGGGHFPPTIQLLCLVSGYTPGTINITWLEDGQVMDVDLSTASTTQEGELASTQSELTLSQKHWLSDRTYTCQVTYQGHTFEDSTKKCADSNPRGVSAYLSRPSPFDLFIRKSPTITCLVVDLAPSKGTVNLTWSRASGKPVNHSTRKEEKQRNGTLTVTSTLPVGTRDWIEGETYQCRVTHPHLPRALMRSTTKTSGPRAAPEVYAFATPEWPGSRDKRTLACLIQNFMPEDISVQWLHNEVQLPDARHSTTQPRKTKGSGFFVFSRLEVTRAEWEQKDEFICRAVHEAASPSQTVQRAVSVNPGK
binder,measurement,setting,value
B1,binding result,[1],no binding
same,binding result,[2],no binding
same,binding result,[3],no binding
same,absorbance at 450 nm,[4],0.041
same,absorbance at 450 nm,[5],0.047
same,absorbance at 450 nm,[6],2.04
same,absorbance at 450 nm,[7],0.048
same,absorbance at 450 nm,[8],0.043
same,absorbance at 450 nm,[9],0.042
same,absorbance at 450 nm,[10],0.042
same,absorbance at 450 nm,[11],0.044
same,absorbance at 450 nm,[12],0.043
